# Data reported in publication PMC9357107.
# Tests used:
# [1] = biological target: insulin-like growth factor 2 (IGF-2) (human) (UniProt P01344); test: SPR
# [2] = biological target: insulin-like growth factor 1 (IGF-1) (human) (UniProt P05019); test: SPR
# [3] = biological target: linker domain of human IGFBP2 (L-hIGFBP2; residues A97-C191) (human); test: NMR titration
# UniProt P01344, sequence (P01344 25-91): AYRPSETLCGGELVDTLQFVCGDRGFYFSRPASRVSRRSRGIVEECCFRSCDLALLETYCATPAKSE
Kd [1] [µM],Kd [2] [µM],stoichiometry N [3],Substance
3.7,4.1,–,linker domain of human IGFBP2 (L-hIGFBP2; residues A97-C191) (domain or fragment)
–,–,1,insulin-like growth factor 1 (IGF-1) (from UniProt P05019 49-118) (ligand)
